Consider 2 molecules from doi:10.1101/709196 (bioRxiv, 2019).

Bounds are passed on as bounds.

In one series the target is SS-EGFP-SUN2^261-731 (UniProt Q8BJS4). The experiment in a line: dual-color fluorescence fluctuation spectroscopy.
Series [1] concerns the molecule itself. Put plainly: dual-color fluorescence fluctuation spectroscopy.

As a reminder, the stoichiometry N is a count of units in the complex or per binding partner. “mCherry-SR-KASH2 (from UniProt Q6ZWQ0 1-6874) (domain or fragment)” yielded a normalized brightness br (mCherry labels per complex) at Nr:Ng above 4:1 with SS-EGFP-SUN2^261-731 of 3. Also, the stoichiometry N in the series with SS-EGFP-SUN2^261-731 (scale: mCherry-SR-KASH2 per SS-EGFP-SUN2^261-731) was under 1.

B1: SS-EGFP-SUN2^261-731 (domain or fragment, UniProt Q8BJS4 261-731, looked up)
chain: SWWAAKESRKQPEVWESRDASQHFQAEQRVLSRVHSLERRLEALAADFSSNWQKEAIRLERLELRQGAAGHGGGSSLSHEDALSLLEGLVSRREATLKEDLRRDTVAHIQEELATLRAEHHQDSEDLFKKIVQASQESEARVQQLKTEWKSMTQEAFQESSVKELGRLEAQLASLRQELAALTLKQNSVADEVGLLPQKIQAARADVESQFPDWIRQFLLGDRGARSGLLQRDEMHAQLQELENKILTKMAEMQGKSAREAAASLGQILQKEGIVGVTEEQVHRIVKQALQRYSEDRIGMVDYALESGGASVISTRCSETYETKTALLSLFGIPLWYHSQSPRVILQPDVHPGNCWAFQGPQGFAVVRLSARIRPTAVTLEHVPKALSPNSTISSAPKDFAIFGFDEDLQQEGTLLGTFAYDQDGEPIQTFYFQASKMATYQVVELRILTNWGHPEYTCIYRFRVHGEPAH
Regarding B1, in series [1], the “stoichiometry N” value was 3.
